Numbering of substitutions follows the chain as printed.
T1: human PAC1 receptor (human, UniProt P41586 24-468)
T1 sequence: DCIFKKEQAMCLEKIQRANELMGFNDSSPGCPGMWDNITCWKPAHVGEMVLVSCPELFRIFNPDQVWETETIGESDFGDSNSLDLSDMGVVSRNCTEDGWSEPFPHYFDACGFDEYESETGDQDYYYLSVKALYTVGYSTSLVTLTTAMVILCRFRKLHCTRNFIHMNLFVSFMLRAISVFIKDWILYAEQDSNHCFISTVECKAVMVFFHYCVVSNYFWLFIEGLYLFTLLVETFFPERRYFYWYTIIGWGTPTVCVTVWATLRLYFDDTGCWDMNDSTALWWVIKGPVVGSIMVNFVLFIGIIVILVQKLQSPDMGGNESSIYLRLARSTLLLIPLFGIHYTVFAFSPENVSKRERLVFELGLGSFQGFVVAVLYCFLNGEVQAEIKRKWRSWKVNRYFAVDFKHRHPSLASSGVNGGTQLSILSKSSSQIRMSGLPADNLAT

B1: iPS:454847 (bispecific antibody, human IgG1, kappa, lambda, N297G)
light 1: QSVLTQPPSVSAAPGQKVTISCSGSRSNIGIKAVSWYQQLPGTAPKLLIYDNNKRPSGIPDRFSGSKSGTSATLGITGLQTGDEADYYCGTWDSRLSAVVFGGGTKLTVLGQPKAAPSVTLFPPSSEELQANKATLVCLISDFYPGAVTVAWKADSSPVKAGVETTTPSKQSNNKYAAKSYLSLTPEQWKSHRSYSCQVTHEGSTVEKTVAPTECS
heavy 1: QVQLVESGGGVVQPGRSLRLSCAASGFTFSSFGMHWVRQAPGKGLEWVAVISFDGSIKYSVDSVKGRFTISRDNSKNTLFLQMNSLRAEDTAVYYCARDRLNYYESSGYYHYKYYGMAVWGQGTTVTVSSASTKGPSVFPLAPSSKSTSGGTAALGCLVKDYFPEPVTVSWNSGALTSGVHTFPAVLQSSGLYSLESVVTVPSSSLGTQTYICNVNHKPSNTKVDKKVEPKSCDKTHTCPPCPAPELLGGPSVFLFPPKPKDTLMISRTPEVTCVVVDVSHEDPEVKFNWYVDGVEVHNAKTKPCEEQYGSTYRCVSVLTVLHQDWLNGKEYKCKVSNKALPAPIEKTISKAKGQPREPQVYTLPPSRKKMTKNQVSLTCLVKGFYPSDIAVEWESNGQPENNYKTTPPVLKSDGSFFLYSKLTVDKSRWQQGNVFSCSVMHEALHNHYTQKSLSLSPGK
light 2: EIVLTQSPATLSLSPGERATLSCRASKSVGWSLHWYQQKPGQAPRLLIKYASQSLSGIPARFSGSGSGTDFTLTISSLEPEDFAVYYCHQSSRLPFTFGPGTKVDIKRTVAAPSVFIFPPSDEQLKSGTASVVCLLNNFYPREAKVQWKVDNALQSGNSQESVTEQDSKDSTYSLESTLTLSKADYEKHKVYACEVTHQGLSSPVTKSFNRGEC
heavy 2: not shown
B2: iPS:454853 (bispecific antibody, human IgG1, kappa, lambda, N297G)
light 1: B1 light 1
heavy 1: B1 heavy 1
light 2: B1 light 2
heavy 2: not shown
B3: iPS:454859 (bispecific antibody, human IgG1, kappa, lambda, N297G)
light 1: B1 light 1 with R26S, I31N, K32N, A33Y, A72T
heavy 1: B1 heavy 1 with E105R, S107F, H111G, K113H
light 2: B1 light 2 with S28A, G30W, W31H, S32N, R93M
heavy 2: not shown
B4: iPS:454857 (bispecific antibody, human IgG1, kappa, lambda, N297G)
light 1: B1 light 1 with R26S, I31N, K32N, A33Y, A72T
heavy 1: B1 heavy 1 with E105R, S107F, H111G, K113H
light 2: B1 light 2 with W31Q
heavy 2: not shown
B5: iPS:454873 (bispecific antibody, human IgG1, kappa, lambda, N297G)
light 1: B1 light 1 with R26S, I31N, K32N, A33Y, A72T
heavy 1: B1 heavy 1 with E105R, S107F, H111G, K113H
light 2: B1 light 2 with S28A, W31F, R93F
heavy 2: not shown
B6: iPS:454863 (bispecific antibody, human IgG1, kappa, lambda, N297G)
light 1: B1 light 1 with R26S, I31N, K32N, A33Y, A72T
heavy 1: B1 heavy 1 with E105R, S107F, H111G, K113H
light 2: B1 light 2 with W31Q
heavy 2: not shown
B7: iPS:454871 (bispecific antibody, human IgG1, kappa, lambda, N297G)
light 1: B1 light 1 with R26S, I31N, K32N, A33Y, A72T
heavy 1: B1 heavy 1 with E105R, S107F, H111G, K113H
light 2: B1 light 2 with W31Q
heavy 2: not shown
B8: iPS:454869 (bispecific antibody, human IgG1, kappa, lambda, N297G)
light 1: B1 light 1 with R26S, I31N, K32N, A33Y, A72T
heavy 1: B1 heavy 1 with E105R, S107F, H111G, K113H
light 2: B1 light 2 with W31Q
heavy 2: not shown
B9: iPS:454855 (bispecific antibody, human IgG1, kappa, lambda, N297G)
light 1: B1 light 1
heavy 1: B1 heavy 1
light 2: B1 light 2 with W31Y
heavy 2: not shown
B10: iPS:454885 (bispecific antibody, human IgG1, kappa, lambda, N297G)
light 1: B1 light 1 with R26S, I31N, K32N, A33Y, A72T
heavy 1: B1 heavy 1 with E105R, S107F, H111G, K113H
light 2: B1 light 2 with W31R
heavy 2: not shown
B11: iPS:454849 (bispecific antibody, human IgG1, kappa, lambda, N297G)
light 1: B1 light 1
heavy 1: B1 heavy 1
light 2: B1 light 2
heavy 2: not shown
B12: iPS:454879 (bispecific antibody, human IgG1, kappa, lambda, N297G)
light 1: B1 light 1 with R26S, I31N, K32N, A33Y, A72T
heavy 1: B1 heavy 1 with E105R, S107F, H111G, K113H
light 2: B1 light 2 with W31R
heavy 2: not shown
B13: iPS:454883 (bispecific antibody, human IgG1, kappa, lambda, N297G)
light 1: B1 light 1 with R26S, I31N, K32N, A33Y, A72T
heavy 1: B1 heavy 1 with E105R, S107F, H111G, K113H
light 2: B1 light 2 with W31R
heavy 2: not shown
B14: iPS:454861 (bispecific antibody, human IgG1, kappa, lambda, N297G)
light 1: B1 light 1 with R26S, I31N, K32N, A33Y, A72T
heavy 1: B1 heavy 1 with E105R, S107F, H111G, K113H
light 2: B1 light 2 with K27R, W31L, S32A, R93F
heavy 2: not shown
B15: iPS:454851 (bispecific antibody, human IgG1, kappa, lambda, N297G)
light 1: B1 light 1
heavy 1: B1 heavy 1
light 2: B1 light 2
heavy 2: not shown
B16: iPS:454865 (bispecific antibody, human IgG1, kappa, lambda, N297G)
light 1: B1 light 1 with R26S, I31N, K32N, A33Y, A72T
heavy 1: B1 heavy 1 with E105R, S107F, H111G, K113H
light 2: B1 light 2 with W31Q
heavy 2: not shown
B17: iPS:454887 (bispecific antibody, human IgG1, kappa, lambda, N297G)
light 1: B1 light 1 with R26S, I31N, K32N, A33Y, A72T
heavy 1: B1 heavy 1 with E105R, S107F, H111G, K113H
light 2: B1 light 2 with W31R
heavy 2: not shown
B18: iPS:454889 (bispecific antibody, human IgG1, kappa, lambda, N297G)
light 1: B1 light 1 with R26S, I31N, K32N, A33Y, A72T
heavy 1: B1 heavy 1 with E105R, S107F, H111G, K113H
light 2: B1 light 2 with W31R
heavy 2: not shown
B19: iPS:454881 (bispecific antibody, human IgG1, kappa, lambda, N297G)
light 1: B1 light 1 with R26S, I31N, K32N, A33Y, A72T
heavy 1: B1 heavy 1 with E105R, S107F, H111G, K113H
light 2: B1 light 2 with W31R
heavy 2: not shown
B20: iPS:454867 (bispecific antibody, human IgG1, kappa, lambda, N297G)
light 1: B1 light 1 with R26S, I31N, K32N, A33Y, A72T
heavy 1: B1 heavy 1 with E105R, S107F, H111G, K113H
light 2: B1 light 2
heavy 2: not shown
B21: iPS:454877 (bispecific antibody, human IgG1, kappa, lambda, N297G)
light 1: B1 light 1 with R26S, I31N, K32N, A33Y, A72T
heavy 1: B1 heavy 1 with E105R, S107F, H111G, K113H
light 2: B1 light 2 with W31R
heavy 2: not shown
B22: iPS:454875 (bispecific antibody, human IgG1, kappa, lambda, N297G)
light 1: B1 light 1 with R26S, I31N, K32N, A33Y, A72T
heavy 1: B1 heavy 1 with E105R, S107F, H111G, K113H
light 2: EIVLTQSPATLSLSPGERATLSCRASRAVSNLHWYQQKPGQAPRLLIKYASQSLSGIPARFSGSGSGTDFTLTISSLEPEDFAVYYCHQSSYLPFTFGPGTKVDIKRTVAAPSVFIFPPSDEQLKSGTASVVCLLNNFYPREAKVQWKVDNALQSGNSQESVTEQDSKDSTYSLESTLTLSKADYEKHKVYACEVTHQGLSSPVTKSFNRGEC
heavy 2: not shown

Molecular target: human CGRP receptor (human, UniProt Q16602 23-461; O60894 27-148)
Assay: cell-based or functional assay

Chain of human CGRP receptor (Q16602 23-461 limits assumed, chain 1 of 2): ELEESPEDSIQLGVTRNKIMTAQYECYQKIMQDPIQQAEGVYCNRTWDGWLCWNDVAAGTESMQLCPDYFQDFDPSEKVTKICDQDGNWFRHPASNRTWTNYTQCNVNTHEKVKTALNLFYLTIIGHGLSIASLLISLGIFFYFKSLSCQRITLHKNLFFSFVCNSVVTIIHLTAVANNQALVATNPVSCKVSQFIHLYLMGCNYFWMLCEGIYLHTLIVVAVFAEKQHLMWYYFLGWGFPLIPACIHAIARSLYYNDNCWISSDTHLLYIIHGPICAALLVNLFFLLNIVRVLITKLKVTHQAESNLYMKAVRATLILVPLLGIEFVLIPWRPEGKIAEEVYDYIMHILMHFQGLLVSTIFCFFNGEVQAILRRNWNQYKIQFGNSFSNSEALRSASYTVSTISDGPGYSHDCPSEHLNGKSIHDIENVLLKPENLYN
Chain of human CGRP receptor (O60894 27-148 limits assumed, chain 2 of 2): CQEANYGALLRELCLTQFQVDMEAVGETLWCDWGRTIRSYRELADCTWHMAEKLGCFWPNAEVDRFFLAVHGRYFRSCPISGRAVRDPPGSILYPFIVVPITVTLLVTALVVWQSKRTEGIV

Binder | Fold-improvement over 4E4 Ab [fold] | IC50 [nM]
B1 | 1.5 | 0.43
B2 | 1.4 | 0.47
B3 | 0.4 | 1.5
B4 | 0.5 | 1.36
B5 | 0.2 | 2.13
B6 | 0.4 | 1.5
B7 | 0.2 | 2.3
B8 | 0.4 | 1.65
B9 | 1.4 | 0.46
B10 | 0.5 | 1.16
B11 | 1.2 | 0.55
B12 | 0.3 | 1.37
B13 | 0.5 | 1.03
B14 | 0.4 | 1.54
B15 | 1.8 | 0.37
B16 | 0.4 | 1.59
B17 | 0.3 | 1.86
B18 | 0.5 | 1.1
B19 | 0.5 | 0.93
B20 | 0.4 | 1.55
B21 | 0.3 | 1.49
B22 | 0.3 | 1.7

Molecular target: T1, human PAC1 receptor
Assay: cell-based or functional assay

Binder | Fold-improvement over 29G4v22 Ab [fold] | IC50 [nM]
B1 | 6.7 | 0.8
B2 | 5.8 | 0.93
B3 | 3.3 | 1.91
B4 | 11.2 | 0.57
B5 | 4.4 | 1.32
B6 | 4.5 | 1.4
B7 | 3.3 | 1.74
B8 | 5.8 | 1.1
B9 | 6.6 | 0.81
B10 | 10.5 | 0.61
B11 | 3.6 | 1.48
B12 | 6.7 | 0.86
B13 | 9 | 0.64
B14 | 4.8 | 1.34
B15 | 7.1 | 0.76
B16 | 3.9 | 1.63
B17 | 9.3 | 0.69
B18 | 4.9 | 1.31
B19 | 10.9 | 0.53
B20 | 6.5 | 0.98
B21 | 7.2 | 0.8
B22 | 1.9 | 3

— patent publication US20220363770A1 (Amgen, published 2022)
